From patent publication US20250270306A1 (OSPEDALE SAN RAFFAELE S R L, published 2025)
Positions count from the first letter of the chain named. One block for each binder: values may come before it.

Key:
Recombinant human IGFBP3 [1] = target: T1, Recombinant human IGFBP3 (human, UniProt P17936 28-291); assay: cell-based or functional assay
Recombinant human IGFBP3 [2] = target: T1, Recombinant human IGFBP3; assay: competitive ELISA: plate coated with rhIGFBP3 4 µg/ml; ecto-TMEM219 10 µg/ml added with the antibody (10 µg/ml per paragraph 174); detection anti-HisTag HRP; blocked ligand: ecto-TMEM219
Description: FIG. 5. IGFBP3-Ecto-TMEM219 binding in the presence of newly generated anti-IGFBP3 mAbs (n=11, YU139 antibodies) or Ecto-TMEM219 alone or monoclonal anti-IGFBP3 commercially available (LSBIO LS-C45037/clone 83.8F9, mAnti-IGFBP3) tested by using a competitive ELISA screening assay. In this assay, the microtiter plate was coated with rhlGFBP3, and labeled ecto-TMEM219 added. Each candidate monoclonal antibody was added and its ability to displace ecto-TMEM219 was assessed by measuring Absorbance after the plate was washed. Boxed are anti-IGFBP3 antibodies able to achieve the highest reduction in Ecto-TMEM219 signal (1-way ANOVA, p<0.00001).
Microplate was coated with 50 μl/well of 4 μg/ml rhlGFBP3 dissolved in PBS or PBS alone (no coating). Plate was incubated 90 minutes at 37° C. and washed with PBS (300 μl/well) and incubated with the blocking reagent (200 μl/well) 2 hours at room temperature. Samples were then diluted in the diluent solution (50 μl/well) and added to the plate as follows: diluent solution (none), ecto-TMEM 10 μg/ml, ecto-TMEM 10 μg/ml+anti-IGFBP3 mAbs 10 μg/ml, anti-IGFBP3 mAbs 10 μg/ml alone. After washing steps, plate was then incubated at room temperature for 1 hour with anti 6×His tag HRP diluted 1:2000 in Diluent solution (50 μl/well). ELISA plate was then read after adding visualization solution at ELISAreader and adsorbance was measured.

Recombinant human IGFBP3 [3] = target: T1, Recombinant human IGFBP3; assay: ELISA: rhIGFBP3 2 µg/ml coated directly; scFv-Fc titrated 0.01-10 µg/ml; detection goat anti-human Fc-HRP, Abs 450 nm
Description: CVC microplates were coated with: i) 100 μl/well of 2 μg/ml rhIGFBP3 dissolved in PBS or PBS alone (no coating) and incubated 60 minutes at RT; ii) 100 μl/well of 2 μg/ml anti-IGFBP3 (LS-C45037 LSBio) and incubated o.n at 4° C. Plates were washed with H₂O-Tween20 (0.05%) and incubated with the blocking reagent (2% BSA-PBS-T (0.05%)). For condition ii) 100 μl/well of 2 μg/ml rhIGFBP3 was incubated o.n at 4° C. After washing the newly generated antibodies (in 2% BSA-PBS-T (0.05%)) were titrated onto the plate and incubated for 1 hour at RT. After washing steps, detection of bound antibodies was performed using a goat anti-human Fc-HRP antibody (Sigma A0170) in 2% BPS-PBS-T (0.05%) followed by washing and read out with TMB (100 μl/well). ELISA plates were then read measuring the absorbance at 450 nm.

Recombinant human IGFBP3 [4] = target: T1, Recombinant human IGFBP3; assay: BLI (Octet/BLItz)
mouse IGFBP3 [5] = target: T2, mouse IGFBP3 (mouse, UniProt P47878 28-292, limits assumed); assay: BLI (Octet/BLItz)
T2 construct: Bought protein; also called mIGFBP-3; murine IGFBP3

Recombinant human IGFBP3 [6] = target: T1, Recombinant human IGFBP3; assay: BLI (Octet/BLItz), antibody captured via Fc on AHC biosensor, antigen in solution
Description: (§1) To assess the binding affinity in more detail, affinity measurements were performed using Biomolecular Interaction Analysis performed by an Octet instrument (BLItz System), which is a Biolayer Interferometry (BLI) platform. To establish the assay, the target monoclonal antibody (30 μg/ml in 1% BSA-PBST) was immobilized via Fc on the via AHC biosensor and the interaction with the antigen human IGFBP3 (R&D, cat n° 675 B3) and mouse IGFBP3 (Creative Biomart, cat n° igfbp3 829M) at different concentration was measured.

mouse IGFBP3 [7] = target: T2, mouse IGFBP3; assay: as above
Description: as §1

T1 sequence (P17936 28-291 limits assumed): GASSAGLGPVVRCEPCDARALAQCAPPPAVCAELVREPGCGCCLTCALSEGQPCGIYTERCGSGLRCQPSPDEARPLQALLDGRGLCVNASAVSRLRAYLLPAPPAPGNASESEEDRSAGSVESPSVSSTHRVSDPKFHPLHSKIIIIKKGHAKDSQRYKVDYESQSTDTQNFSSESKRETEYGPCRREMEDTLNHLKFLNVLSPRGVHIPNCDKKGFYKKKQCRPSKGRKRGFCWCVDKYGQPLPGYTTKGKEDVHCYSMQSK
T2 sequence (P47878 28-292 limits assumed): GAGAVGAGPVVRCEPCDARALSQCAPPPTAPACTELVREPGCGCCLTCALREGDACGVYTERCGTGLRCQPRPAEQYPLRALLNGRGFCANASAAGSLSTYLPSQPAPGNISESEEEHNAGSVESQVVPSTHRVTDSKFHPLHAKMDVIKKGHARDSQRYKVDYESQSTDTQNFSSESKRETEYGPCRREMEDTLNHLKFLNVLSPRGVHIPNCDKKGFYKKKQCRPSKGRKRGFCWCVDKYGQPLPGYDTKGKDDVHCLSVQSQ

B1: YU139-G03 (Fc fusion)
VH: QVQLQQSGAEVKKPGSSVKVSCKASGGIFSTYVTSWVRQAPGQGLEWMGGIIPMFDTTEYAQKLEGRVTITVDESTNTAYMELSSLRFEDTAVYYCARAGGLSHFDYWGQGTLVTVSS
VL: EIVLTQSPLSLPVTPGEPASISCRSSQSLLHSNGNNYLNWYLQKPGQSPQLLIYLSSRRASGVPDRFSGSGSGTDFTLKISRVEAEDVGVYYCMQGLQTPWTFGQGTKVETK
expression of ISCs markers EphB2 and LGR5 (RT-PCR) in IGFBP3-treated mini-guts (Recombinant human IGFBP3 [1]): ≥ 50%

B2: YU139-D02 (Fc fusion)
VH: EVQLVESGGGVVQPGRSLRLSCAASGFTFSSYGMHWVRQAPGKGLEWVAVISYDGSNKYYADSVKGRFTISRDNSKNTLYLQMNSLRAEDTAVYYCAKDNGDYGYYYYYYMDVWGKGTTVTVSS
VL: DIQMTQSPSTLSASVGDRVTITCRASQSISRWLAWYQQKPGKAPKLLIYDASSLESGVPSRFSGSGSGTEFTLTISSLQPDDFATYYCQQSYSTPLTFGPGTKVDIK
binding result (Recombinant human IGFBP3 [2]): binds

B3: YU139-G01 (Fc fusion)
VH: QMQLVQSGAEVKMPGASVKVSCKASGYTFTSYGISWVRQAPGQGLEWMGWISAYNGNTYYAQKLQGRVTMTADTSTSTAYMDLRSLRSDDTAVYYCARLSYYNYAMDVWGQGTTVTVSS
VL: QSALTQPPSASGSPGQSVTISCTGTSSDVGGYNHVSWYQQHPGKAPKLMIYEVSNRPSGVPNRFSGSKSGNTASLTISGLQAEDEADYYCSSYTSSNTWVFGGGTKLTVL
binding result (Recombinant human IGFBP3 [3]): binds

B6: YU139-H03 (Fc fusion)
VH: QVQLVQSGAEVKKPGASVKVSCKASGYTFTSYGISWVRQAPGQGLEWMGWISAYNGNTNYAQKLQGRVTMTTDTSTSTAYMELRSLRSDDTAVYYCARVKWELGWAFDIWGQGTMVTVSS
VL: QAVLTQPPSVSGAPGQRVTISCTGSSSNIGAGYDVHWYQQLPGTAPKLLIYGNSNRPSGVPDRFSGSKSGTSAPLAITGLQAEDEADYYCQSYDSSLSTVFGGGTKLTVL
notes: The format used in the Octet assay is not restated (captured via Fc)
expression of ISCs markers EphB2 and LGR5 (RT-PCR) in IGFBP3-treated mini-guts (Recombinant human IGFBP3 [1]): ≥ 50%
Kd (Recombinant human IGFBP3 [6]): 4000 nM

B7: YU139-A03 (Fc fusion)
VH: QVQLVQSGGGVVQPGRSLRLSCAASGFTFSSYGIHWVRQAPGKGLEWVAIVSYDGRHKYYADSVKGRFTISRDDSKNTIYLQMDSLRAEDTAVYYCAKDSGNSGLEGIHDYWGQGTLVTVSS
VL: DVVMTQSPSSVSASVGDRVTITCRASQGISSWLAWYQQKPGKAPKLLIYAASSLQSGVPSRFSGSGSGTDFTLTISSLQPEDFGTYYCQQANSFPLTFGGGTKVEIK
notes: as for B6
expression of ISCs markers EphB2 and LGR5 (RT-PCR) in IGFBP3-treated mini-guts (Recombinant human IGFBP3 [1]): ≥ 50%
Kd (Recombinant human IGFBP3 [6]): 328 nM
Kd (mouse IGFBP3 [7]): 735 nM

B9: YU139-C01 (Fc fusion)
VH: QVQLVQSGAEVKKPGASVKVSCKASGYTFTSYGISWVRQAPGQGLEWMGWINTYNGNTNYAQKLQGRVTMTTDTSTTTAYMELRSLRSDDTAVYYCARDIGYSGSYYSPYYYYGMDVWGQGTTVTVSS
VL: SSELTQDPAVSVALGQTVRITCQGDGLRNYFASWYQQKPGQAPVLVIYGKNNRPSGIPDRFSGSSSGNTASLRIAGAQAEDEADYYCNSRDGSGKHLVFGGGTKLTV
notes: The format used in the Octet assay is not restated (captured via Fc); also called Yu139-CO1
expression of ISCs markers EphB2 and LGR5 (RT-PCR) in IGFBP3-treated mini-guts (Recombinant human IGFBP3 [1]): ≥ 50%
Kd (Recombinant human IGFBP3 [6]): 1.69 nM
Kd (mouse IGFBP3 [7]): 342 nM

Next, values leading:

Kd (Recombinant human IGFBP3 [4]): 35 nM
Kd (mouse IGFBP3 [5]): 60 nM
B4: ecto-TMEM219 (receptor)
chain: THRTGLRSPDIPQDWVSFLRSFGQLTLCPRNGTVTGKWRGSHVVGLLTTLNFGDGPDRNKTRTFQATVLGSQMGLKGSSAGQLVLITARVTTERTAGTCLYFSAVPGILPSSQPPISCSEEGAGNATLSPRMGEECVSVWSHEGLVLTKLLTSEELALCGSR
notes: it is put last here only for want of better knowledge; also called EctoTMEM-His; extracellular domain of TMEM219; not shown: His tag (detected with anti 6xHis tag HRP)

binding result (Recombinant human IGFBP3 [3]): binds
B5: YU139-A02 (Fc fusion)
VH: QVQLVQSGAEVKKPGSSVKVSCKASGGTFSSYAISWVRQAPGQGLEWMGGIIPIFGTANYAQKFQGRVTITADESTSTAYMELSSLRSEDTAVYYCARDYYDSSGYYFDAFDIWGQGTMVTVSS
VL: QAGLTQPPSASGTPGQRVIISCSGSSSNIGTNTVSWYQHLPGTAPKLLIYNNNERPSGVPRRFSGSRSGASASLAISGLQSDDEAHYYCAAWDDNLTGLVFGGGTKLTVL

binding result (Recombinant human IGFBP3 [2]): binds
B8: YU139-D03 (Fc fusion)
VH: QVQLVQSGAEVKKPGASVKVSCKASGYTFSDYGISWVRQAPGQGLEWMGWISGDNVKTTYAKKFQGRVTLTTDTSTSTAYMELRSLTSDDTAAYYCARGGIVFDYWGQGTLVTVSS
VL: ETTLTQSPGTLSLSPGERATLSCRASQSVSGNYLAWYQQKPGQPPRLLIFGASSRATGIPDRFSGSGSGTDFTLTISRLEPEDFGVYYCQQYGSSPGTFGQGTKVEIK

binding result (Recombinant human IGFBP3 [2]): binds
B10: YU139-B01 (Fc fusion)
VH: QVQLQESGPGLVKPSGTLSLTCAVSGGSISSSNWWSWVRQPPGKGLEWIGEVYHSGSTNYNPSLKSRVTISVDKSKNQFSLKLSSVTAADTAVYYCARNIPLSSSWPNYYYYYGMDVWGQGTTVTVSS
VL: B9 VL with G26S, F31Y, R73T, A75N, G92S, G94A, L97W
